3 molecules from patent US20230211007A1 (published 2023) can be followed below.

By Kd is commonly meant the constant that tells how readily two partners part at equilibrium. A higher Kd goes with lower affinity.

T1: CD20 (UniProt P11836 142-188, limits assumed)
T1 construct: Bought reagent
T1 chain (looked up): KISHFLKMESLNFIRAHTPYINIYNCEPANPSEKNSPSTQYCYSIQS

B1: WT Rituximab (antibody, human IgG1, kappa)
heavy: not shown
light: QIVLSQSPAILSASPGEKVTMTCRASSSVSYIHWFQQKPGSSPKPWIYATSNLASGVPVRFSGSGSGTSYSLTISRVEAEDAATYYCQQWTSNPPTFGGGTKLEIKRTVAAPSVFIFPPSDEQLKSGTASVVCLLNNFYPREAKVQWKVDNALQSGNSQESVTEQDSKDSTYSLSSTLTLSKADYEKHKVYACEVTHQGLSSPVTKSFNRGEC
notes: also called anti-CD20 wild-type antibody
B2: anti-CD20 antibody mutant 124C (antibody, human IgG1, kappa)
heavy: not shown
light: QIVLSQSPAILSASPGEKVTMTCRASSSVSYIHWFQQKPGSSPKPWIYATSNLASGVPVRFSGSGSGTSYSLTISRVEAEDAATYYCQQWTSNPPTFGGGTKLEIKRTVAAPSVFIFPPSDECLKSGTASVVCLLNNFYPREAKVQWKVDNALQSGNSQESVTEQDSKDSTYSLSSTLTLSKADYEKHKVYACEVTHQGLSSPVTKSFNRGEC
B3: anti-CD20 antibody mutant 166C (antibody, human IgG1, kappa)
heavy: not shown
light: QIVLSQSPAILSASPGEKVTMTCRASSSVSYIHWFQQKPGSSPKPWIYATSNLASGVPVRFSGSGSGTSYSLTISRVEAEDAATYYCQQWTSNPPTFGGGTKLEIKRTVAAPSVFIFPPSDEQLKSGTASVVCLLNNFYPREAKVQWKVDNALQSGNSQESVTECDSKDSTYSLSSTLTLSKADYEKHKVYACEVTHQGLSSPVTKSFNRGEC

The target in this experiment is T1, CD20. Nature of the experiment: BLI (Octet), antibody on Pro A probe, CD20 25-200 nM in solution. The protocol: Antibody samples were dissolved in PBS with a working concentration of 10 μg/mL; CD20 (Beijing SinoBiological Co., Ltd.) was dissolved in PBS and gradiently diluted to concentrations of 25 nM, 50 nM, 75 nM, 100 nM, 150 nM, 200 nM respectively. The working volume was 200 μL.
The data diagram was fitted by OCTET system and data-processing software, and the intermolecular interaction between the antibody and the CD20 was calculated by the software, and shown in KD value.
Molecule B1 came in with a Kd of 5.35 nM.

In turn, B2 gave a Kd of 8.97 nM.

For B3, the dissociation constant Kd came to 4.86 nM. Compared with the last molecule, the Kd is about 1.8-fold lower.
